Data: the RNAGym collection of RNA variant scans (doi:10.1021/acssynbio.7b00057)

B1: Pistol ribozyme (parent)
chain: GGGUCGUUGUUCCAUAAUCGCGUGGAUAUGGCACGCAAGUUUCUACCGGGCACCGUAAAUGUCCGACUGGAGCCGUUCGGGCGGCUAUAAACAGACCUCAGGCCCGAAGCGUGGCGGCACCUGCCGCCGGUGGUAAAAAAGAUCGGAAGAGCACACGUCU

Variants of: B1
Test: aptazyme ON/OFF ratio, guanine; higher = stronger switching; co-transcriptional cleavage with and without guanine

Variant	aptazyme ON/OFF ratio
GGGUCGCAUUACUAUAAUCGCGUGGAUAUGGCACGCAAGUUUCUACCGGGCACCGUAAAUGUCCGACUGGAGCCGUUCGGGCGGCUAUAAACAGACCUCAGGCCCGAAGCGUGGCGGCACCUGCCGCCGGUGGUAAAAAAGAUCGGAAGAGCACACGUCU [U7C U8A G9U U11A C13U]	1.17
GGGUCGCAUUACAAUAAUCGCGUGGAUAUGGCACGCAAGUUUCUACCGGGCACCGUAAAUGUCCGACUGGAGCCGUUCGGGCGGCUAUAAACAGACCUCAGGCCCGAAGCGUGGCGGCACCUGCCGCCGGUGGUAAAAAAGAUCGGAAGAGCACACGUCU [U7C U8A G9U U11A C13A]	1.2
GGGUCGCAUUACGAUAAUCGCGUGGAUAUGGCACGCAAGUUUCUACCGGGCACCGUAAAUGUCCGACUGGAGCCGUUCGGGCGGCUAUAAACAGACCUCAGGCCCGAAGCGUGGCGGCACCUGCCGCCGGUGGUAAAAAAGAUCGGAAGAGCACACGUCU [U7C U8A G9U U11A C13G]	1.05
GGGUCGCAUGGGCAUAAUCGCGUGGAUAUGGCACGCAAGUUUCUACCGGGCACCGUAAAUGUCCGACUGGAGCCGUUCGGGCGGCUAUAAACAGACCUCAGGCCCGAAGCGUGGCGGCACCUGCCGCCGGUGGUAAAAAAGAUCGGAAGAGCACACGUCU [U7C U8A G9U U10G U11G C12G]	1.26
GGGUCGCAUGGACAUAAUCGCGUGGAUAUGGCACGCAAGUUUCUACCGGGCACCGUAAAUGUCCGACUGGAGCCGUUCGGGCGGCUAUAAACAGACCUCAGGCCCGAAGCGUGGCGGCACCUGCCGCCGGUGGUAAAAAAGAUCGGAAGAGCACACGUCU [U7C U8A G9U U10G U11G C12A]	1.16
GGGUCGCAUGGUCAUAAUCGCGUGGAUAUGGCACGCAAGUUUCUACCGGGCACCGUAAAUGUCCGACUGGAGCCGUUCGGGCGGCUAUAAACAGACCUCAGGCCCGAAGCGUGGCGGCACCUGCCGCCGGUGGUAAAAAAGAUCGGAAGAGCACACGUCU [U7C U8A G9U U10G U11G C12U]	1.25
GGGUCGCAUGGAAAUAAUCGCGUGGAUAUGGCACGCAAGUUUCUACCGGGCACCGUAAAUGUCCGACUGGAGCCGUUCGGGCGGCUAUAAACAGACCUCAGGCCCGAAGCGUGGCGGCACCUGCCGCCGGUGGUAAAAAAGAUCGGAAGAGCACACGUCU [U7C U8A G9U U10G U11G C12A C13A]	1.07
GGGUCGCAUGGAUAUAAUCGCGUGGAUAUGGCACGCAAGUUUCUACCGGGCACCGUAAAUGUCCGACUGGAGCCGUUCGGGCGGCUAUAAACAGACCUCAGGCCCGAAGCGUGGCGGCACCUGCCGCCGGUGGUAAAAAAGAUCGGAAGAGCACACGUCU [U7C U8A G9U U10G U11G C12A C13U]	1.26
GGGUCGCAUGGAGAUAAUCGCGUGGAUAUGGCACGCAAGUUUCUACCGGGCACCGUAAAUGUCCGACUGGAGCCGUUCGGGCGGCUAUAAACAGACCUCAGGCCCGAAGCGUGGCGGCACCUGCCGCCGGUGGUAAAAAAGAUCGGAAGAGCACACGUCU [U7C U8A G9U U10G U11G C12A C13G]	1.11
GGGUCGCAUGGUAAUAAUCGCGUGGAUAUGGCACGCAAGUUUCUACCGGGCACCGUAAAUGUCCGACUGGAGCCGUUCGGGCGGCUAUAAACAGACCUCAGGCCCGAAGCGUGGCGGCACCUGCCGCCGGUGGUAAAAAAGAUCGGAAGAGCACACGUCU [U7C U8A G9U U10G U11G C12U C13A]	1.11
GGGUCGCAUGGUGAUAAUCGCGUGGAUAUGGCACGCAAGUUUCUACCGGGCACCGUAAAUGUCCGACUGGAGCCGUUCGGGCGGCUAUAAACAGACCUCAGGCCCGAAGCGUGGCGGCACCUGCCGCCGGUGGUAAAAAAGAUCGGAAGAGCACACGUCU [U7C U8A G9U U10G U11G C12U C13G]	1.15
GGGUCGCAUGGUUAUAAUCGCGUGGAUAUGGCACGCAAGUUUCUACCGGGCACCGUAAAUGUCCGACUGGAGCCGUUCGGGCGGCUAUAAACAGACCUCAGGCCCGAAGCGUGGCGGCACCUGCCGCCGGUGGUAAAAAAGAUCGGAAGAGCACACGUCU [U7C U8A G9U U10G U11G C12U C13U]	1.3
GGGUCGCAUGCUUAUAAUCGCGUGGAUAUGGCACGCAAGUUUCUACCGGGCACCGUAAAUGUCCGACUGGAGCCGUUCGGGCGGCUAUAAACAGACCUCAGGCCCGAAGCGUGGCGGCACCUGCCGCCGGUGGUAAAAAAGAUCGGAAGAGCACACGUCU [U7C U8A G9U U10G U11C C12U C13U]	1.22
GGGUCGCAUUAACAUAAUCGCGUGGAUAUGGCACGCAAGUUUCUACCGGGCACCGUAAAUGUCCGACUGGAGCCGUUCGGGCGGCUAUAAACAGACCUCAGGCCCGAAGCGUGGCGGCACCUGCCGCCGGUGGUAAAAAAGAUCGGAAGAGCACACGUCU [U7C U8A G9U U11A C12A]	1.19
GGGUCGCAUUAGCAUAAUCGCGUGGAUAUGGCACGCAAGUUUCUACCGGGCACCGUAAAUGUCCGACUGGAGCCGUUCGGGCGGCUAUAAACAGACCUCAGGCCCGAAGCGUGGCGGCACCUGCCGCCGGUGGUAAAAAAGAUCGGAAGAGCACACGUCU [U7C U8A G9U U11A C12G]	1.14
GGGUCGCAUUAUCAUAAUCGCGUGGAUAUGGCACGCAAGUUUCUACCGGGCACCGUAAAUGUCCGACUGGAGCCGUUCGGGCGGCUAUAAACAGACCUCAGGCCCGAAGCGUGGCGGCACCUGCCGCCGGUGGUAAAAAAGAUCGGAAGAGCACACGUCU [U7C U8A G9U U11A C12U]	1.06
GGGUCGCAUGCCAAUAAUCGCGUGGAUAUGGCACGCAAGUUUCUACCGGGCACCGUAAAUGUCCGACUGGAGCCGUUCGGGCGGCUAUAAACAGACCUCAGGCCCGAAGCGUGGCGGCACCUGCCGCCGGUGGUAAAAAAGAUCGGAAGAGCACACGUCU [U7C U8A G9U U10G U11C C13A]	1.2
GGGUCGCAUGCCGAUAAUCGCGUGGAUAUGGCACGCAAGUUUCUACCGGGCACCGUAAAUGUCCGACUGGAGCCGUUCGGGCGGCUAUAAACAGACCUCAGGCCCGAAGCGUGGCGGCACCUGCCGCCGGUGGUAAAAAAGAUCGGAAGAGCACACGUCU [U7C U8A G9U U10G U11C C13G]	1.07
